# From paper PMC3014896
# Tests used:
# [1] = target: HLMWb5 A59S mutant (human) (UniProt P00167)
# [2] = target: HLMWb5 A59V mutant (human) (UniProt P00167)
# [3] = target: HLMWb5 G67A mutant (human) (UniProt P00167)
# [4] = target: HLMWb5 G67S mutant (human) (UniProt P00167)
# [5] = target: HLMWb5 L51I mutant (human) (UniProt P00167)
# [6] = target: full-length form of human cytochrome b5 (human) (UniProt P00167)
# [7] = target: HLMWb5 A59S mutant (human) (UniProt P00167); remark: listed apart in the source
# [8] = target: HLMWb5 A59V mutant (human) (UniProt P00167); remark: listed apart in the source
# [9] = target: HLMWb5 G67A mutant (human) (UniProt P00167); remark: listed apart in the source
# [10] = target: HLMWb5 G67S mutant (human) (UniProt P00167); remark: listed apart in the source
# [11] = target: HLMWb5 L51I mutant (human) (UniProt P00167); remark: listed apart in the source
# [12] = target: full-length form of human cytochrome b5 (human) (UniProt P00167); remark: listed apart in the source
# [13] = target: heme-binding soluble domain of human liver microsomal cytochrome b5 with an NH2-terminal 6xHis-tag extension (HLMWb5) (human) (UniProt P00167)
substance,measurement,setting,value
poly-L-lysine (peptide),"half-wave potential E1/2 (vs. SHE) by cyclic voltammetry, poly-L-lysine 50~300 μM; shifts positively and reaches a plateau at 200 μM (value at 200 μM)",[1],-31.5 mV
same,"half-wave potential E1/2 (vs. SHE) by cyclic voltammetry, poly-L-lysine 50~300 μM; no dependency on the poly-L-lysine concentration observed (value at 200 μM)",[2],-29 mV
same,"half-wave potential E1/2 (vs. SHE) by cyclic voltammetry, poly-L-lysine 50~300 μM; similar concentration dependency as the wild type, with a significant negative shift (value at 200 μM)",[3],-40.5 mV
same,"half-wave potential E1/2 (vs. SHE) by cyclic voltammetry, poly-L-lysine 50~300 μM; similar concentration dependency as the wild type (value at 200 μM)",[4],-32 mV
same,"half-wave potential E1/2 (vs. SHE) by cyclic voltammetry, poly-L-lysine 50~300 μM; no dependency on the poly-L-lysine concentration observed (value at 200 μM)",[5],-30.5 mV
same,"half-wave potential E1/2 (vs. SHE) by cyclic voltammetry, Au electrode with β-mercaptopropionic acid, 200 μM poly-L-lysine, with Triton X-100",[6],-20.5 mV
same,midpoint potential (vs. SHE) by spectroscopic redox titration with 200 μM poly-L-lysine (-4.9 mV without poly-L-lysine),[7],9.6 mV
same,midpoint potential (vs. SHE) by spectroscopic redox titration with 200 μM poly-L-lysine (-7.7 mV without poly-L-lysine),[8],11.7 mV
same,midpoint potential (vs. SHE) by spectroscopic redox titration with 200 μM poly-L-lysine (-8.4 mV without poly-L-lysine),[9],-2.7 mV
same,midpoint potential (vs. SHE) by spectroscopic redox titration with 200 μM poly-L-lysine (-7.3 mV without poly-L-lysine),[10],14.2 mV
same,midpoint potential (vs. SHE) by spectroscopic redox titration with 200 μM poly-L-lysine (-9.5 mV without poly-L-lysine),[11],10.5 mV
same,"midpoint potential (vs. SHE) by spectroscopic redox titration with 200 μM poly-L-lysine, 0.5% Triton X-100 (-2.6 mV without poly-L-lysine)",[12],8.7 mV
same,"midpoint potential (vs. SHE) by spectroscopic redox titration, 15 μM protein with 200 μM poly-L-lysine, pH 7.0, 25°C (-3.2 mV without poly-L-lysine)",[13],16.5 mV
